The source of these data is the supplement of paper PMC9112550, “Optimization of the antimicrobial peptide Bac7 by deep mutational scanning” (BMC Biology, 2022).

The data set relates to Escherichia coli TOP10. Description: shrunken log2 fold change of peptide-encoding DNA abundance (4.5 h post-induction vs induction); higher = less antimicrobial activity (less host growth inhibition). The settings on record: time post-induction: 4.5 h; library: site-saturation at positions 5, 18, 19, 20.
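Note: peptides expressed intracellularly from a pBAD plasmid library in pooled LB shake-flask culture, induced with 0.3% L-arabinose, DNA abundance read by NGS, three biological replicates, DESeq2 with apeglm shrinkage.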

Turning to RRIRARPPRLPRPRPRPYSAPRP, the “shrunken log2 fold change” value is -0.256. For the sequence RRIRKRPPRLPRPRPRPARDPRP, the “shrunken log2 fold change” value worked out at 1.1. Next, RRIRSRPPRLPRPRPRPWRSPRP: 0.00174; RRIRIRPPRLPRPRPRPKIYPRP: -0.581. In the case of RRIRMRPPRLPRPRPRPQVTPRP it was -0.116.

On to RRIRGRPPRLPRPRPRPTPMPRP, for which the “shrunken log2 fold change” value came to 0.887. For RRIRSRPPRLPRPRPRPLCMPRP, the “shrunken log2 fold change” value is -0.242. Next, RRIRLRPPRLPRPRPRPGPSPRP: 0.25; RRIRSRPPRLPRPRPRPPPLPRP: 0.739.

With RRIRIRPPRLPRPRPRPRPEPRP, the “shrunken log2 fold change” value worked out at 0.11. As to RRIRMRPPRLPRPRPRPMQAPRP, the “shrunken log2 fold change” value is 3.02. In the case of RRIRIRPPRLPRPRPRPWCPPRP it was 0.0944; in that of RRIRWRPPRLPRPRPRPQTTPRP, 0.206; in that of RRIRYRPPRLPRPRPRPLPIPRP, -0.722. RRIRKRPPRLPRPRPRPLKGPRP: the “shrunken log2 fold change” value is -0.022. As to RRIRNRPPRLPRPRPRPVPFPRP, the “shrunken log2 fold change” value was 0.041.

On to RRIRMRPPRLPRPRPRPDMPPRP, for which the “shrunken log2 fold change” value was -0.0178. In the case of RRIRFRPPRLPRPRPRPFKEPRP it was -0.173; in that of RRIRFRPPRLPRPRPRPGLHPRP, 0.159; in that of RRIRNRPPRLPRPRPRPYPKPRP, 0.0245.

With RRIRRRPPRLPRPRPRPGWRPRP, the “shrunken log2 fold change” value came out at 0.425.

For the sequence RRIRIRPPRLPRPRPRPYPIPRP, the “shrunken log2 fold change” value is -0.139. In the case of RRIRFRPPRLPRPRPRPWARPRP it was -0.114; in that of RRIRWRPPRLPRPRPRPDTAPRP, -0.192. Turning to RRIRNRPPRLPRPRPRPMRLPRP, the “shrunken log2 fold change” value turned out to be 0.286.

RRIRIRPPRLPRPRPRPNGWPRP: the “shrunken log2 fold change” value came out at 0.101.

Consider RRIRIRPPRLPRPRPRPRIPPRP, for which the “shrunken log2 fold change” value was -0.324. In the case of RRIRVRPPRLPRPRPRPMEYPRP it was -0.0697; in that of RRIRGRPPRLPRPRPRPCNNPRP, 0.0304. On to RRIRLRPPRLPRPRPRPAEQPRP, for which the “shrunken log2 fold change” value amounted to 0.0174. In the case of RRIRCRPPRLPRPRPRPWWKPRP it was -0.334; in that of RRIRYRPPRLPRPRPRPLVHPRP, 0.0162; in that of RRIRLRPPRLPRPRPRPGCVPRP, 0.182. Next, RRIRIRPPRLPRPRPRPNGKPRP: -0.229; RRIRYRPPRLPRPRPRPSCWPRP: -0.349. In the case of RRIRGRPPRLPRPRPRPDCSPRP, the “shrunken log2 fold change” value stood at 0.798. Next, RRIRRRPPRLPRPRPRPKVKPRP: -0.0947; RRIRKRPPRLPRPRPRPPPAPRP: 1.29; RRIRHRPPRLPRPRPRPDATPRP: 0.286. Regarding RRIRSRPPRLPRPRPRPAPDPRP, the “shrunken log2 fold change” value stood at 0.369. In the case of RRIRGRPPRLPRPRPRPLLDPRP it was 2.07; in that of RRIRERPPRLPRPRPRPHEYPRP, -0.0163. With RRIRNRPPRLPRPRPRPAEVPRP, the “shrunken log2 fold change” value is -0.144. RRIRRRPPRLPRPRPRPYCFPRP: the “shrunken log2 fold change” value was -0.37.

Consider RRIRERPPRLPRPRPRPLQAPRP, for which the “shrunken log2 fold change” value came out at 0.167. Next, RRIRARPPRLPRPRPRPSDMPRP: 0.16. In the case of RRIRNRPPRLPRPRPRPILHPRP it was -0.684. In the case of RRIRTRPPRLPRPRPRPYAWPRP, the “shrunken log2 fold change” value was -0.0721. Next, RRIRCRPPRLPRPRPRPWMLPRP: -0.419. In the case of RRIRYRPPRLPRPRPRPNQTPRP it was -0.0672; in that of RRIRGRPPRLPRPRPRPIHWPRP, 0.306; in that of RRIRHRPPRLPRPRPRPDTHPRP, -1.19. On to RRIRSRPPRLPRPRPRPEELPRP, for which the “shrunken log2 fold change” value was 0.176. RRIRYRPPRLPRPRPRPMRKPRP: the “shrunken log2 fold change” value is -0.00197.

For the sequence RRIRSRPPRLPRPRPRPRLDPRP, the “shrunken log2 fold change” value was 0.25. Next, RRIRVRPPRLPRPRPRPPPWPRP: 0.758. Next, RRIRHRPPRLPRPRPRPTTGPRP: -0.117; RRIRERPPRLPRPRPRPGHEPRP: 0.159. Next, RRIRRRPPRLPRPRPRPIEDPRP: -0.089; RRIRARPPRLPRPRPRPRTQPRP: 0.634; RRIRLRPPRLPRPRPRPATCPRP: -0.597.

Turning to RRIRGRPPRLPRPRPRPLEDPRP, the “shrunken log2 fold change” value amounted to 0.205. Take RRIRARPPRLPRPRPRPCWNPRP: the “shrunken log2 fold change” value was -0.0387.

RRIRPRPPRLPRPRPRPGCQPRP: the “shrunken log2 fold change” value is -0.0622. Next, RRIRFRPPRLPRPRPRPLTTPRP: 0.0259; RRIRKRPPRLPRPRPRPEVWPRP: 0.951; RRIRFRPPRLPRPRPRPWPFPRP: -0.455. Next, RRIRIRPPRLPRPRPRPGTCPRP: -0.188. In the case of RRIRFRPPRLPRPRPRPFQNPRP, the “shrunken log2 fold change” value was -0.041.

In the case of RRIRIRPPRLPRPRPRPYPDPRP, the “shrunken log2 fold change” value was -0.039. For RRIRCRPPRLPRPRPRPIIEPRP, the “shrunken log2 fold change” value is -0.851. Next, RRIRRRPPRLPRPRPRPEVVPRP: 0.472; RRIRDRPPRLPRPRPRPHSDPRP: -0.115; RRIRKRPPRLPRPRPRPQARPRP: -0.0213. In the case of RRIRPRPPRLPRPRPRPKDFPRP, the “shrunken log2 fold change” value was -0.141. In the case of RRIRVRPPRLPRPRPRPLPQPRP it was 0.216. In the case of RRIRRRPPRLPRPRPRPDELPRP it was 0.614; in that of RRIRDRPPRLPRPRPRPFNYPRP, -0.048; in that of RRIRLRPPRLPRPRPRPPGPPRP, 0.359. In the case of RRIRTRPPRLPRPRPRPESIPRP, the “shrunken log2 fold change” value is -0.114. In the case of RRIRHRPPRLPRPRPRPQAGPRP it was -0.0176; in that of RRIRNRPPRLPRPRPRPALDPRP, 0.113; in that of RRIRYRPPRLPRPRPRPDTHPRP, -0.22. Next, RRIRGRPPRLPRPRPRPQSWPRP: 0.445; RRIRKRPPRLPRPRPRPVPAPRP: 0.648; RRIRIRPPRLPRPRPRPQHGPRP: -0.184.

As for RRIRIRPPRLPRPRPRPELGPRP, the “shrunken log2 fold change” value was found to be 0.0694. Turning to RRIRGRPPRLPRPRPRPQWMPRP, the “shrunken log2 fold change” value was 0.115.

RRIRRRPPRLPRPRPRPIEGPRP: the “shrunken log2 fold change” value stood at 0.0101. In the case of RRIRSRPPRLPRPRPRPVRYPRP it was 0.0544; in that of RRIRGRPPRLPRPRPRPWNNPRP, 0.139; in that of RRIRLRPPRLPRPRPRPAKKPRP, 0.0858. Next, RRIRWRPPRLPRPRPRPDEAPRP: 0.0325. Next, RRIRKRPPRLPRPRPRPKAWPRP: -0.0159; RRIRYRPPRLPRPRPRPHPPPRP: 0.374; RRIRYRPPRLPRPRPRPHWSPRP: -0.318.

On to RRIRWRPPRLPRPRPRPMWVPRP, for which the “shrunken log2 fold change” value was -0.0542.

As for RRIRSRPPRLPRPRPRPCQMPRP, the “shrunken log2 fold change” value was 0.0312. Regarding RRIRLRPPRLPRPRPRPGKCPRP, the “shrunken log2 fold change” value is -0.073.

Take RRIRDRPPRLPRPRPRPNRDPRP: the “shrunken log2 fold change” value was -0.0372.

Turning to RRIRDRPPRLPRPRPRPIDPPRP, the “shrunken log2 fold change” value is -0.107. Next, RRIRIRPPRLPRPRPRPQQRPRP: -0.104; RRIRSRPPRLPRPRPRPYQRPRP: -0.103. Next, RRIRHRPPRLPRPRPRPENLPRP: -0.00992. As for RRIRGRPPRLPRPRPRPHDPPRP, the “shrunken log2 fold change” value was 0.546. Next, RRIRSRPPRLPRPRPRPEQMPRP: -0.0112; RRIRHRPPRLPRPRPRPKIMPRP: -0.811; RRIRNRPPRLPRPRPRPTPFPRP: -0.07. As to RRIRARPPRLPRPRPRPWVLPRP, the “shrunken log2 fold change” value is -0.0908. In the case of RRIRTRPPRLPRPRPRPWQHPRP it was -0.0511.

RRIRGRPPRLPRPRPRPTKHPRP: the “shrunken log2 fold change” value is 0.385.

Regarding RRIRERPPRLPRPRPRPYSKPRP, the “shrunken log2 fold change” value was -0.464. Consider RRIRPRPPRLPRPRPRPMSSPRP, for which the “shrunken log2 fold change” value was -0.135. As to RRIRARPPRLPRPRPRPSEKPRP, the “shrunken log2 fold change” value is -0.312. Next, RRIRRRPPRLPRPRPRPLQQPRP: 0.0366.

Regarding RRIRCRPPRLPRPRPRPVKIPRP, the “shrunken log2 fold change” value came to 0.108. Take RRIRARPPRLPRPRPRPSLTPRP: the “shrunken log2 fold change” value came to 0.172. In the case of RRIRKRPPRLPRPRPRPVCFPRP, the “shrunken log2 fold change” value was found to be 0.54. Turning to RRIRPRPPRLPRPRPRPPENPRP, the “shrunken log2 fold change” value came to 0.365. With RRIRWRPPRLPRPRPRPCYCPRP, the “shrunken log2 fold change” value was -0.247. As for RRIRSRPPRLPRPRPRPILRPRP, the “shrunken log2 fold change” value was -0.0847. Next, RRIRPRPPRLPRPRPRPLGSPRP: -0.0459. As for RRIRFRPPRLPRPRPRPELKPRP, the “shrunken log2 fold change” value was -0.0455.

Consider RRIRQRPPRLPRPRPRPNSVPRP, for which the “shrunken log2 fold change” value is -0.265.

As for RRIRERPPRLPRPRPRPTNSPRP, the “shrunken log2 fold change” value is -0.782.
